Measurements taken from patent publication US20080064631A1 (published 2008).

T1: proteinase 3 and neutrophil elastase (PR1) peptide on HLA-A*02:01 (human)
T1 peptide: VLQELNVTV

B1: High avidity PR1-CTL clone F4 TCR (TCR, V domains shown)
Valpha: GQNIDQPTEMTATEGAIVQINCTYQTSGFNGLFWYQQHAGEAPTFLSYNVLDGLEEKGRFSSFLSRSKGYSYLLLKELQMKDSASYLCAVSRDSGNTPLVFGKGTRLSVIA
Vbeta: DSGVTQTPKHLITATGQRVTLRCSPRSGDLSVYWYQQSLDQGLQFLIQYYNGEERAKGNILERFSAQQFPDLHSELNLSSLELGDSALYFCASSPSGTGNIQYFGAGTRLSVL
B2: Low avidity PR1-CTL clone B12 TCR (TCR, V domains shown)
Valpha: AQSVTQPDIHITVSEGASLELRCNYSYGATPYLFWYVQSPGQGLQLLLKYFSGDTLVQGIKGFEAEFKRSQSSFNLRKPSVHWSDAAEYFCAVGGGARLMFGDGTQLVVKP
Vbeta: KAGVTQTPRYLIKTRGQQVTLSCSPISGHRSVSWYQQTPGQGLQFLSEYFSETQRNKGNFPGRFSGRQFSNPRSEMNVSTLELGDSALYLCASSGEAFYEQYFGPGTRLTVT

Target: T1, proteinase 3 and neutrophil elastase …
Experiment: multimer staining
Description: Briefly, from PBMC that were derived from a healthy HLA-A2+ donor, the inventor elicited bulk PR1-CTL cell lines after 4 to 6 weeks of weekly stimulations with the PR1 peptide+low dose IL-2 and IL-7 in vitro, as outlined in FIG. 1. These CTL were subsequently placed into limiting dilution culture and after an additional 14 to 20 days. The cells were expanded with anti-CD3/anti-CD28 beads+IL-2+feeder cells+IL-15 to sufficient numbers and were then tested. The PR1-CTLs were stained with PR1-CTL tetramer to confirm specificity (FIG. 2). Unique cDNA sequences from the CDR3-α and CDR3-β regions from two different PR1-specific CTL clones that were derived from an HLA-A2+ healthy individual were obtained. The inventor reported that one PR1-CTL clone (F4) bears a relatively high avidity TCR for the PR1/HLA-A2 ligand, while the other CTL clone (B12) bears a relatively low avidity TCR. These conclusions are supported with PR1/HLA-A2 tetramer binding data and with cytotoxicity assays that show F4 to have a higher tetramer staining fluorescence intensity and a lower threshold of activation than the B12 clone, respectively. TCR-αβ CDR3 nucleic acid sequence data is provided showing clonality at the molecular level.

Binder | binding result
B1 | recognises
B2 | recognises
